3 molecules from paper PMC2852416, “Modular Insulators: Genome Wide Search for Composite CTCF/Thyroid Hormone Receptor Binding Sites” can be followed below.

Series [1] addresses T1, GST-TR (TRbeta) (human, UniProt P10828 1-461).
T1 sequence: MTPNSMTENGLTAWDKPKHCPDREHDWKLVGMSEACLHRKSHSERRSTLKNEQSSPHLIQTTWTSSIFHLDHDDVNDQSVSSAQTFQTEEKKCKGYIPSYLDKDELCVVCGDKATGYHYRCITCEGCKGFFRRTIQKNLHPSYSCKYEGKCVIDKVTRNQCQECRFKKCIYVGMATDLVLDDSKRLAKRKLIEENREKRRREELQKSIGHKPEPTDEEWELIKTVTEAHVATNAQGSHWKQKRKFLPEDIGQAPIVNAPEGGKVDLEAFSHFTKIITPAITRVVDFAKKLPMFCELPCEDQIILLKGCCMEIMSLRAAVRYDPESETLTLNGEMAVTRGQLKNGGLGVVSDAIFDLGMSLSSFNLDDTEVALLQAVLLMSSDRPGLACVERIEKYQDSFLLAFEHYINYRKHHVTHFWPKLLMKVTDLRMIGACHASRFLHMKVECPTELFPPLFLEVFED
The experiment in a line: EMSA; PBS pH 7.4, 5 mM MgCl2, 1 mM ZnCl2, 1 mM DTT, 0.1% NP-40, 10% glycerol, 200 ng/ul pdIdC, 25-100 ng/ul salmon sperm DNA, 20 min room temperature; 5% PAGE in TAE. Conditions: protein: recombinant; tags: GST; label: 32P; blunt.

Series [2] addresses T1, GST-TR (TRbeta). The experiment in a line: competition; mutated F2 against COMT DR4 probe; PBS pH 7.4, 5 mM MgCl2, 1 mM ZnCl2, 1 mM DTT, 0.1% NP-40, 10% glycerol, 200 ng/ul pdIdC, 25-100 ng/ul salmon sperm DNA, 20 min room temperature; 5% PAGE in TAE. Conditions: protein: recombinant; tags: GST; 5' overhangs 4 nt.
Series [3] addresses T1, GST-TR (TRbeta). Put plainly: competition; 50-fold excess against COMT DR4 probe; PBS pH 7.4, 5 mM MgCl2, 1 mM ZnCl2, 1 mM DTT, 0.1% NP-40, 10% glycerol, 200 ng/ul pdIdC, 25-100 ng/ul salmon sperm DNA, 20 min room temperature; 5% PAGE in TAE. Conditions: protein: recombinant; tags: GST; label: 32P; 5' overhangs 4 nt.

B1: COMT DR4 (dsDNA)
DNA 1: ACCCGAGGGCACCAGAGGGCACGAGA
DNA 2: TCTCGTGCCCTCTGGTGCCCTCGGGT
Turning to B1, in series [1], the binding result is “binds”.

B2: F2mut TRE (dsDNA)
DNA 1: AGCTTTTAGTTACTTATTGGGTCCAGCTGATCCCAG
DNA 2: GATCCTGGGATCAGCTGGACCCAATAAGTAACTAAA
Take B2: in series [2], the binding result is recorded as “no binding”.

B3: F2 TRE (ER6) (dsDNA)
DNA 1: AGCTTTTAGTTACTTATTGACCCCAGCTGAGGTCAG
DNA 2: GATCCTGACCTCAGCTGGGGTCAATAAGTAACTAAA
As to B3, in series [3], the binding result is listed as “binds”.
